The target of one experiment is T1, Cdh1^WD40 (Saccharomyces cerevisiae, UniProt P53197).
T1 construct: the WD40 domains of yeast Cdh1 (aa 241–550; pNH144); made in house; host or cells: Sf9 insect cells (baculovirus)
T1 sequence (P53197 241-550): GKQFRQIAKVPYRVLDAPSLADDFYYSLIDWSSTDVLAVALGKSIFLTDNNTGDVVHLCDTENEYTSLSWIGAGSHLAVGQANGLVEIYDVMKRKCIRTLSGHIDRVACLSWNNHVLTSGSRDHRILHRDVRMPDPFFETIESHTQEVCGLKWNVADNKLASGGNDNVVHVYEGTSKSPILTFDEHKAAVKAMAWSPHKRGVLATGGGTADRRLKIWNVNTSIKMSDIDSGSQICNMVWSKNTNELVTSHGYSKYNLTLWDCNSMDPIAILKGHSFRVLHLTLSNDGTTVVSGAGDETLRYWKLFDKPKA
Kind of experiment: SMOR assay (single-molecule off-rate, TIRF), yeast Cdh1^WD40. The format is binding. The settings on record: for mean dwell time: representative of two independent experiments, ± SE, ligand ≤1 nM, buffer C + BSA. The protocol: Activators were cloned into the pFastBac HT A vector, with an N-terminal 2xStrep-Tag II. For some experiments, we constructed vectors for expression of the WD40 domains of yeast Cdh1 (aa 241–550; pNH144), human Cdh1 (aa 165–484; pNH164), or human Cdc20 (aa 162–484; pNH188). For SMOR, a C-terminal GFP tag was added. Bacmid plasmids are listed in Supplementary Table 3. Plasmids were transformed into DH10Bac cells, and purified Bacmid was used to transfect Sf9 cells to generate P1 baculovirus, which was used to generate P2 virus. SF9 cells were infected with the P2 virus for 48 h. Flash-frozen pellets were lysed by sonication or high-pressure homogenization in lysis buffer B (50 mM Tris-HCl pH 8, 150 mM KCl, 0.5 mM EDTA, 1 mM DTT, 10% Glycerol, EDTA-free protease inhibitor tablet, 1 µg ml^−1 pepstatin A). After the lysate was applied to the StrepTrap column, the column was washed with wash buffer B (lysis buffer B lacking protease inhibitors) and eluted in the same buffer containing 2.5 mM desthiobiotin.
For all SMOR experiments, 24 × 50 mm high precision glass coverslips (Bioscience Tools) and drilled microscope slides were passivated with a combination of PEG and PEG-biotin (coverslips) or PEG only (slides) following a previously published protocol for SiMPull[31]. Reaction chambers (~20 µl) were created using double-sided tape and epoxy. Protein was immobilized on the surface with 0.2 mg ml^−1 NeutrAvidin in buffer C (20 mM HEPES pH 7.5, 150 mM KCl, 10% glycerol, 0.05% Tween-20, 1 mM DTT). Excess NeutrAvidin was washed away and incubated with either biotin-conjugated mouse monoclonal anti-Strep-Tag II antibody (LSBio, Cat. No. LS-C203632-100) or biotin-conjugated rabbit polyclonal anti-GFP antibody (Rockland, Cat. No. 600-406-215) diluted in buffer C + BSA (0.1 mg ml^−1; Molecular Biology Grade Bovine Serum Albumin). Activator WD40 and activated APC/C (typically 50 µl containing about 65 ng APC/C, of which only a small fraction is immobilized on the glass) were immobilized using anti-Strep-Tag II, while APC/C alone was immobilized with anti-GFP. SMOR results were similar when performed in the buffer (wash buffer B) used in polarization anisotropy.
To capture dynamic protein–protein interactions, dye-labeled substrate diluted in buffer C + BSA was added to the chamber containing immobilized proteins. Interactions were imaged by TIRF microscopy as described below. For optimal signal-to-noise ratio, peptide concentration was no greater than 1 nM. Protein substrates included Hsl1 aa 667–872 and a C-terminal HaloTag followed by a TAP tag, and were produced by translation in rabbit reticulocyte lysates using TnT Quick Coupled Transcription/Translation System (Promega) (see Supplementary Table 5 for plasmids). Protein was purified with magnetic IgG beads and labeled on the bead with JF549 or JF646 dye so that unbound dye could be washed away. Purified dye-labeled protein was then cleaved from the beads using TEV protease. Before adding substrate to the reaction chamber, oxygen scavenging reagents were added (10 nM protocatechuate-3,4-dioxygenase, 2.5 mM protocatechuic acid, and 1 mM Trolox)[41]. A detailed description of the SMOR analysis pipeline is found in Supplementary Note 1.
Microscopy was performed with a Nikon Eclipse TE2000-E with Perfect Focus with a 100 × 1.49na oil, Apo TIRF DIC N2, 0.13-0.2, WD0.12 objective. Movies were recorded using the Andor iXon DU-897E-CSO. […]

A further experiment has as its system APC/C^Cdh1. In words: Ensemble binding of radiolabeled Hsl1 fragments to APC/C^Cdh1 on magnetic beads. On the set-up: species or system yeast. An excerpt:
Supplementary Fig. 2: APC/C activity with tagged substrates a, Methods for analysis of APC/C activity and substrate binding. b, APC/C ubiquitylation assay with ra d io lab e le d f u ll-len g th yS e cu rin , co mpa rin g wild-type APC/CCdh1 an d AP C/ CCdh1 with a GFP ta g o n A p c1 . c, Comparison of activities with APC/CCdh1, using either wild-type Cdh1 or Cdh1 with the N-terminal 2XStrep-Tag II. d, Comparison of activities with APC/CCdh1 and the Hsl1 fragment (667-872) with and without the C-terminal Halo tag. e, Binding of radiolabeled Hsl1 fragments to yeast APC/CCdh1 immobilized on magnetic beads. First lane (Inp, input) indicates the amount of labeled protein added to the beads prior to washing, second lane (+) indicates amount bound, and third lane (-) indicates background binding in absence of APC/CCdh1. f, Ubiquitylation of Halo-tagged Hsl1 fragment with APC/CCdh1 an d A P C/ CCdc20. Experiments we re pe rfo rme d o n ce (b, c) or twice ( d-f). Source data are provided as a Source Dat a file.
(1 picture or pasted object on this page, not shown here)

Values joined by “and” are separate entries in the source; they are usually repeats but may differ in a detail not shown here. Equal values may be shown once.

The values below come from PMC8764033, “Single-molecule analysis of specificity and multivalency in binding of short linear substrate motifs to the APC/C” (Nature Communications, 2022).

B1: Hsl1^Halo KEN & D: Hsl1 fragment (amino acids 667–872) with C-terminal HaloTag, JF549-labeled (protein)
chain: QNSASKRSLYSLQSISKRSLNLNDLLVFDDPLPSKKPASENVNKSEPHSLESDSDFEILCDQILFGNALDRILEEEEDNEKERDTQRQRQNDTKSSADTFTISGVSTNKENEGPEYPTKIEKNQFNMSYKPSENMSGLSSFPIFEKENTLSSSYLEEQKPKRAALSDITNSFNKMNKQEGMRIEKKIQREQLQKKNDRPSPLKPIQ
modifications: JF549 or JF646 dye covalently bound to the HaloTag; left off: HaloTag, C-terminal, kept | TAP, C-terminal, cleaved
notes: Hsl1 fragment (amino acids 667–872) with C-terminal HaloTag, JF549-labeled
On to B1, for which the “Dwell Time” value in the experiment with Cdh1^WD40 (Supplementary Table 1, replicate 1 (movie listed first)) stood at 73.520 ± 3.075 s; with Cdh1^WD40 (Supplementary Table 1, replicate 2 (movie listed second)) it was 56.447 ± 2.072 s. Besides, the mean dwell time is 56.4 ± 2 s and 56.4 s with Cdh1^WD40; 56.4 ± 2 s with Cdh1^WD40 (listed as Hsl1 fragment). Besides, the “fold increase in dwell time vs degron peptide alone” value with Cdh1^WD40 (vs D (and KEN) box peptide) came out at 100 fold. Moreover, the “binding to APC/C (in words)” value in the experiment with APC/C^Cdh1 is on record as “HaloTag does not affect ubiquitylation or binding”.
